Test: soluble on expression in E. coli; label from the status in PepcDB or PDB records

Q: For “MGTLIMENETNLSEVELRKNLIANINDCKTLLQLGEIYYSSGRYYLAANYLSYVMKMTNDAALYEKSNQLLFLAERAIQINNNDKMFSNFEFLDTLIMELLNCLKNHYYYNIDIELFELMHVRPSVDSIVVNTQNEKEEIVKHLQGLEELYFNLNDSFSKELLIKLLTFRLLGNHKVKMPLNTIDYWKQRKSIPNLIHSSETLQTNYHNWTLQLFDLTPLKYNLRLFYVPMGISATFLDKQYEYNKISPVIKVKEGDVVIDAGGCFGDTALYFAHEVGETGHVYTIEFIPSNLEIMSKNINLNEKLQNNITIVKHPLWNVSNTSLYYKDQGAASFVTFSEESGVTDKVSTITIDNLVVEHKLHKLDFIKMDVEGAEMNALKGAIHSITTFRPTLAIAIYHQISDFVNVMRFINDLNLGYQFYLGHYTVNAQETILFAVAREKMEVSDENEE”, which “soluble on expression in E. coli” value is on record?
A: soluble

Q: Which “soluble on expression in E. coli” value does the source give for “MGVDKKQKQRKTNPFELKFNKSKHDILGRKKGAQVGAPTASRKRAHEQREQTLGVEYDRKNKISKIVDKRLGEKDGKSEEEKGAMRFTEERVKNYKRASKFNLTDDGDEEEEVLTHKGKALSDIEKYDKSMISDSDDDEEPGNLGSNMVKVAHFGGGEKTAEEHVREKISREDMISNLIAKTKLARHEKQQQKDELELMTESLDSKYQALMGKMKASFRPTGRQPLEKDDYDKLTITLKTEADARATPADRKLSEEEEALKEKERLETLEAAPDADVDIDAGSKADARKVQAKNSRFEVKFDDEGGLIDEDTVEKSRILKKNLDGSDESDDDEDLEDEEEDLDDLLEDEDELEEDSDDEEAQEAQKVVKKAKKSAPEPAETLPFVFEMPKNYKKFCALLEKHSESMDLVLERLVKCHHPSLKEGNKKRLNKLFLLCLRWFDDMSKEELTAESVKEMNLAQETMHALMKFDIQYGVRCVRALIRQHWKGRQDKQKSSPVSFGLISAIRLVSGLFPVADSWHPVVVPALFLATEALCSAKCANLNALAKQIQLANAIVEYVSESKRYVPELVAFARSALLLAVTEKSEKFATNGFPISKPHTEMLCFEEKYTGPALQPISLTTIFNNSPSDPSLKLHVLRALLSLIQHLRVIYSNQNETYSIVFKPFLRILESIQAKNLPAEVQEELETLCASMKAEIGAKCRLVHLSLVKTEKSMLKMLEPRFEWDFDPERPHHGPKDEKKKLTKNLRNERRGAIKELRKDTAFLARKQLSSVKTKDRARIAATKRVMGGLMQQQGEWNKEKRTADVEKKKDKK” here?
A: soluble

Q: Which “soluble on expression in E. coli” value does the source give for “MGVELSLDPPVCPIQANGGVSTHKIINHCDKMLAYKIKSSNNSNYSVNTIFGLIQIGYTADLIITRKPGKPQADKLVIQFAAVEQTCRDGCICQGCICQWTANWRVLWRDDHQAVSC” here?
A: not soluble

Q: With “MGVLLREALRSMCVNNQWSYAVFWKIGCQNSSLLIWEECYNETESSSNPRRLCGLGVDTQGNEKVQLLTNRMMLNNRIILVGEGLVGRAAFTGHHQWILANSFNRDVHPPEVINEMLLQFSAGIQTVAVFPVVPHGVVQLGSSLPIMENLGFVNDVKGLILQLGCVPGALLSENYRTYEPAADFIGVPVSRIIPSQGHKILQSSAFVAETSKQHFNSTGSSDHQMVEESPCNLVDEHEGGWQSTTGFLTAGEVAVPSNPDAWLNQNFSCMSNVDAAEQQQIPCEDISSKRSLGSDDLFDMLGLDDKNKGCDNSWGVSQMRTEVLTRELSDFRIIQEMDPEFGSSGYELSGTDHLLDAVVSGACSSTKQISDETSESCKTTLTKVSNSSVTTPSHSSPQGSQLFEKKHGQPLGPSSVYGSQISSWVEQAHSLKREGSPRMVNKNETAKPANNRKRLKPGENPRPRPKDRQMIQDRVKELREIIPNGAKCSIDALLERTIKHMLFLQNVSKHSDKLKQTGESKIMKEDGGGATWAFEVGSKSMVCPIVVEDINPPRIFQVEMLCEQRGFFLEIADWIRSLGLTILKGVIETRVDKIWARFTVEASRDVTRMEIFMQLVNILEQTMKCGGNSKTILDGIKATMPLPVTGGCSM” as the sequence, how does the “soluble on expression in E. coli” value read?
A: not soluble

Q: With “MGVNGAAGRSPGPKAVKPASVAIAVDYAMLTHEQAAVCAMRHERIDINPEVMGGKPVVRGTRIPVEMILRKLGAGLSTAEIIADHPRLTADDILAVQTFAADYLADQDVIFG” as the sequence, how does the “soluble on expression in E. coli” value read?
A: not soluble

Q: With “MGVPAFFRWLTKKYPATVVNANEDRQRDQDGNRVPVDCTQPNPNFQEFDNLYLDMNGIIHPCTHPEDRPAPKNEDEMFALIFEYIDRIYSIVRPRRLLYMAIDGVAPRAKMNQQRSRRFRASKEMAEKEASIEEQRNRLMAEGIAVPPKKKEEAHFDSNCITPGTPFMARLADALRYYIHDRVTNDASWANIEIILSDANVPGEGEHKIMDYVRKQRGNPAHDPNTVHCLCGADADLIMLGIATHEANFNIIREEFVPNQPRACDLCGQYGHELKECRGAENETDLGDDYCKPEQREKNFIFLRIPVLREYLEKELSMPNLPFKFDVERALDDWVFLCFFVGNDFLPHLPSLEIREGAIDRLIKLYKEMVYQMKGYLTKDGIPELDRVEMIMKGLGRVEDEIFKRRQQDEERFQARMCREESPADIASRKRKAEQPLIKPEEEEDEGPKDDIRLYESGWKDRYYRAKFDVGSDDIEFRHRVAWAYVEGLCWVLRYYYQGCASWDWYFPYHYAPFASDFETVGEFQPDFTRPTKPFNPLEQLMSVFPAASKQHLPVEWQKLMIQDDSPIIDLYPADFRIDLNGKKYAWQGVALLPFVDETRLLATLQSVYPTLTAEEKQRNTRGPNRIFIGRNHKSFEFFQQVAESKSDDLVPLDPTLLNGVSGKIAYDSTATAPGLPFVSPVNHDECQDLPTNCGICVLYEDPEYPQDYIFPALRLDGAKEPEKTLKPDDWNDRRDGRYQPQVGFNRNAPRGSLDQSGHRQVHHYVRGGGGGGGGYRGNSYDDRRGGGGGGGGYNDRQDFGRNYGGRDGGGPQRYHDQQQQRQGGYQGGGYGGGYGGGGGGGGGGGGGSYHQPYNQDQRRGGRGGGGGPPGYQRPPYRGGGGGGYHGNSSWR” as the sequence, how does the “soluble on expression in E. coli” value read?
A: not soluble

Q: With “MGVPFIRFLNITFDRRGDELTGVLNFDDKLIGNPFLPAIHGGVTAAFLEVTAVITLSWAHLFERIESGDLAPEDILTDENMRFPKTIDFTIDYLRSGLPRDAYARAYISRAGRRYASVRVEAWQDHHDKLYAQGTGHFLMPLEHHHHHH” as the sequence, how does the “soluble on expression in E. coli” value read?
A: soluble

Q: With “MGVSLSKGGNVSLTKEAPGLTAVIVGLGWDVRTTTGTDFDLDASALLTNVEGKVANDQNFVFFNNLKSPDGSVEHTGDNITGEGEGDDEQIKVDLATVPADVDKIVFPVSIYDAENRQQSFGQVRNAFIRVVNQAGGAEIARYDLSEDASTETAMVFGELYRNGPEWKFRAIGQGYASGLRGIAQDFGVNV” as the sequence, how does the “soluble on expression in E. coli” value read?
A: not soluble

Q: For “MGVYGMEQNFGLISIIMAAYNAENTIEKAVMSVMAQTYTQFELIIINDCSTDKTLSIIKKFEEFDKRIFLINNSYNRGVSYSRRYGLEKARGEWIAILDSDDAWAADKLEKQIRLQKEKNADLVYTGSAFMDSSGNSIEWYLHVPPEIGYRKLLKQNLISNSSALVRKELYMQYYASGDNMHEDFAIWLRILKTGRKAYGIDEPLLIYRFMRKSKSGNKLIAAKMNWNTYRYIGLDVVSRMYYMIWYMFNGLKKYITLNNEVAKV”, which “soluble on expression in E. coli” value is on record?
A: not soluble

Q: For “MGYKPTQRDIVIIDFAPSKGYEIRKRRPALVMSKDSYNISTNLVIVCPITSLDKERPFLVPIYSEKLHTSDNAVSKVNTLQVYSLDYTEQAQRRIKYVDTLDEETFYEIAQKFLQNFSFAV”, which “soluble on expression in E. coli” value is on record?
A: not soluble

Q: For “MGYLHIDGRGMKPNGGSRHNPLEAETIAAWLVAHKDDIERHYGEPLYKVVGVVTPFSAQVNAIKMSLRKLEINGKDEQGLLTVGTVHSLQGAERAIVLFSPVYSKHEDGRFLDSNSTILNVAVSRAKDSFLVFGDMDLIEMQPAFSPRGLLAKYLFSSDNNALQFEFQKRQDLISAHTQISTLHGVEQHDEFLNKTLAGAQKKITIISPWLSWQKVEQTGFLASMALARSRGIDITVVTDKNCNIAHVDDDKRQEKQHLLNDAVEKLNKMGIATKLVNRVHSKIVIEDEELLCVGSFNWFSATREDKYQRYDTSLVYRGEGVKNEIKAIYGSLDQRQLMGHHHHHHSH”, which “soluble on expression in E. coli” value is on record?
A: not soluble

Q: With “MHERERHRIILSATQEKAVVTVQDIAELTDASEATIRRDIASLHVQGKLRRVRGGAEAVHPPQLGNLAARPFRVSESVNIDKKRAIARKAVDLCNDGDAIILNGGTTTFQMVHYMAARRLQVMTNSFAIAEHLVKHSKCNVNVPGGAIYRDQSLILSPFENDAIRNFYARRIFLGAQGVGALGIMESDALVIQSEQKLMRQAEELIVMVDSSKFRKRSSLILCPLENVTTIITDDGISDEAARMVENAGVELLIAGAVAAGKTAGPPDEENSSSVALEHHHHHH” as the sequence, how does the “soluble on expression in E. coli” value read?
A: not soluble

Q: Which “soluble on expression in E. coli” value does the source give for “MHEWGLSEELKIQTKQMIEIAEKELSIMRNAIDKEDECILCKMEDIHHMLANVQTLAATYYIQAYLSPYTESSSFITTAIQHLSARKHGALIVVERNETLEALIQTGTTLNAHLTAPLLESIFYPGNPLHDGAVLVKNNHIVSAANILPLTKSTEVDPELGTRHRAAIGLSEKSDALILVVSEETGRTSFALNGILYTISL” here?
A: soluble

Q: Which “soluble on expression in E. coli” value does the source give for “MHHHHHHANASETNVGPMAPRVCVVGSVNMDLTFVVDALPRPGETVLAASLTRTPGGKGANQAVAAARAGAQVQFSGAFGDDPAAAQLRAHLRANAVGLDRTVTVPGPSGTAIIVVDASAENTVLVAPGANAHLTPVPSAVANCDVLLTQLEIPVATALAAARAAQSADAVVMVNASPAGQDRSSLQDLAAIADVVIANEHEANDWPSPPTHFVITLGVRGARYVGADGVFEVPAPTVTPVDTAGAGDVFAGVLAANWPRNPGSPAERLRALRRACAAGALATLVSGVGDCAPAAAAIDAALRANRHNGS” here?
A: soluble

Q: Which “soluble on expression in E. coli” value does the source give for “MHHHHHHHHHGGPISKILVANRSEIAIRVFRAANELGIKTVAIWAEEDKLALHRFKADESYQVGRGPHLARDLGPIESYLSIDEVIRVAKLSGADAIHPGYGLLSESPEFVDACNKAGIIFIGPKADTMRQLGNKVAARNLAISVGVPVVPATEPLPDDMAEVAKMAAAIGYPVMLKASWGGGGRGMRVIRSEADLAKEVTEAKREAMAAFGKDEVYLEKLVERARHVESQILGDTHGNVVHLFERDCSVQRRNQKVVERAPAPYLSEAQRQELAAYSLKIAGATNYIGAGTVEYLMDADTGKFYFIEVNPRIQVEHTVTEVVTGIDIVKAQIHILDGAAIGTPQSGVPNQEDIRLNGHALQCRVTTEDPEHNFIPDYGRITAYRSASGFGIRLDGGTSYSGAIITRYYDPLLVKVTAWAPNPLEAISRMDRALREFRIRGVATNLTFLEAIIGHPKFRDNSYTTRFIDTTPELFQQVKRQDRATKLLTYLADVTVNGHPEAKDRPKPLENAARPVVPYANGNGVKDGTKQLLDTLGPKKFGEWMRNEKRVLLTDTTMRDGHQSLLATRMRTYDIARIAGTYSHALPNLLSLECWGGATFDVSMRFLTEDPWERLALIREGAPNLLLQMLLRGANGVGYTNYPDNVVKYFVRQAAKGGIDLFRVFDCLNWVENMRVSMDAIAEENKLCEAAICYTGDILNSARPKYDLKYYTNLAVELEKAGAHIIAVKDMAGLLKPAAAKVLFKALREATGLPIHFHTHDTSGIAAATVLAAVEAGVDAVDAAMDALSGNTSQPCLGSIVEALSGSERDPGLDPAWIRRISFYWEAVRNQYAAFESDLKGPASEVYLHEMPGGQFTNLKEQARSLGLETRWHQVAQAYADANQMFGDIVKVTPSSKVVGDMALMMVSQDLTVADVVSPDREVSFPESVVSMLKGDLGQPPSGWPEALQKKALKGEKPYTVRPGSLLKEADLDAERKVIEKKLEREVSDFEFASYLMYPKVFTDFALASDTYGPVSVLPTPAYFYGLADGEELFADIEKGKTLVIVNQAVSATDSQGMVTVFFELNGQPRRIKVPDRAHGATGAAVRRKAEPGNAAHVGAPMPGVISRVFVSSGQAVNAGDVLVSIEAMKMETAIHAEKDGTIAEVLVKAGDQIDAKDLLAVYGG” here?
A: soluble
